Source: patent US20150329594A1 (University of California, published 2015)
Several values for one entry are separate records, joined by “and”; a condition that tells them apart may be missing. Equal values may be shown once. Read-outs that look alike come from different tables or passages of the source. Bridge positions count the residues as written; N and C are the ends. Square brackets hold non-standard residues; d marks the D form. Trp(1-Me) = Cn1cc(C[C@H](N)C(=O)O)c2ccccc21

How the values were obtained:
Experiment in all cases: cell-based or functional assay
[1] = target: T1, human complement protein C3 (human, UniProt P01024 23-1663)
[2] = target: T1, human complement protein C3; remark: listed apart in the source
[3] = target: T1, human complement protein C3; remark: listed apart in the source
[4] = target: T1, human complement protein C3; remark: listed apart in the source

T1 sequence (P01024 23-1663 limits assumed): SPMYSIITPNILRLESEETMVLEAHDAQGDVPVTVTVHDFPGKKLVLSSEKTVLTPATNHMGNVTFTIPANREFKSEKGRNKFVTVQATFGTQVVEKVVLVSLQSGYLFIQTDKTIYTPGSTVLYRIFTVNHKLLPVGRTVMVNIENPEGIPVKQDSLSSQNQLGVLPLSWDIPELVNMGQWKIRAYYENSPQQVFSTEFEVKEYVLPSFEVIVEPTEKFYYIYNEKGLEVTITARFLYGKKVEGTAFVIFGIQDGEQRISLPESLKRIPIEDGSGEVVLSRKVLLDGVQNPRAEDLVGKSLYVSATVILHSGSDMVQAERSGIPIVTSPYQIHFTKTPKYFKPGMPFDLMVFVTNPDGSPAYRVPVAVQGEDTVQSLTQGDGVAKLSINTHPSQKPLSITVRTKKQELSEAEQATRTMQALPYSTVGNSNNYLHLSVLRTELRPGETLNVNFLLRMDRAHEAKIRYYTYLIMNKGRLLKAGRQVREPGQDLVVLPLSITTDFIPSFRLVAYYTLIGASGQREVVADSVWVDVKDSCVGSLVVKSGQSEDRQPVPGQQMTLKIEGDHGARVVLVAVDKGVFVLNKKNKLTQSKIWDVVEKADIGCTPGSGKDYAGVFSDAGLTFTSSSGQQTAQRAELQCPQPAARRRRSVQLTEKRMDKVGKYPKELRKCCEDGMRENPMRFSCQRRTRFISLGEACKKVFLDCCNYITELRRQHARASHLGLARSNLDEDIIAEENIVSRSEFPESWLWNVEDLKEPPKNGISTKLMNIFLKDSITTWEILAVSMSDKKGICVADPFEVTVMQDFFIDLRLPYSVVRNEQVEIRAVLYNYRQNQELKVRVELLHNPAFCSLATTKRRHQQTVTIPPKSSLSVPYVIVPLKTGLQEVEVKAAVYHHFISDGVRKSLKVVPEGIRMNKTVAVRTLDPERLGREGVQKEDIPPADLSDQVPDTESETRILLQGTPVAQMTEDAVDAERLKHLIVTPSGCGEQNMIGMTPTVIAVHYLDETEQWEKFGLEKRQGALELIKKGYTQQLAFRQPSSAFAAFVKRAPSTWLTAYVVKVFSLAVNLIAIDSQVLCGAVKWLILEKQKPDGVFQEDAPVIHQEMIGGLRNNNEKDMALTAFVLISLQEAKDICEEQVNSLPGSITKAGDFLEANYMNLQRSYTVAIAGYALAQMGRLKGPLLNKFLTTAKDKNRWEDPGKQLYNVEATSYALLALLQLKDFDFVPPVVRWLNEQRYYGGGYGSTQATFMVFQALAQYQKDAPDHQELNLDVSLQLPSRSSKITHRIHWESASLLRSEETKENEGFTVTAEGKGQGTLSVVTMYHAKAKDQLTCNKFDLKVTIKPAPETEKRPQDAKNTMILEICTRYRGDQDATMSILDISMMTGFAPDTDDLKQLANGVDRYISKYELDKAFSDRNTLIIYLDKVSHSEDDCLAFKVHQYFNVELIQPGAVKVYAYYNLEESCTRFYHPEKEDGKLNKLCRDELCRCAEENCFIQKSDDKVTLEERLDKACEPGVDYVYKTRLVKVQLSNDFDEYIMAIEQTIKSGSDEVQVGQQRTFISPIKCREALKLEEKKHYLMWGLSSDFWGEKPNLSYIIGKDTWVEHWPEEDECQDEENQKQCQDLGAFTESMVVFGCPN

B1: Peptide I, Ac-RCVWQDWGAHRCT-NH2 (peptide)
peptide: Ac-RCVWQDWGAHRCT-NH2
modifications: disulfide 2-12
SMILES: CC(=O)N[C@@H](CCCNC(=N)N)C(=O)N[C@H]1CSSC[C@@H](C(=O)N[C@H](C(N)=O)[C@@H](C)O)NC(=O)[C@H](CCCNC(=N)N)NC(=O)[C@H](Cc2c[nH]cn2)NC(=O)[C@H](C)NC(=O)CNC(=O)[C@H](Cc2c[nH]c3ccccc23)NC(=O)[C@H](CC(=O)O)NC(=O)[C@H](CCC(N)=O)NC(=O)[C@H](Cc2c[nH]c3ccccc23)NC(=O)[C@H](C(C)C)NC1=O
[1]
  IC50 (assay not named in Table 7; preliminary C3b ELISA by paragraph 235): 250000 nM
[2]
  C3b ELISA IC50: 2580 nM
  C5b-9 ELISA IC50: 2020 nM
  Hemolytic assay IC50: 3330 nM
[3]
  RPE cell assay medium C5b-9 ELISA, % of positive control (peptide at 1 µM): 61.4 % of positive control
  RPE cell-based assay, confocal imaging of deposit-associated C5b-9, % of positive control (peptide at 1 µM): 55.3 % of positive control
[4]
  C3b ELISA IC50: 2600 nM and 1100 nM
  C5b-9 ELISA IC50: 2000 nM and 1000 nM
  Lysis IC50: 3300 nM and 1200 nM

B2: Peptide III, Ac-RCVme…-NH2 (peptide)
peptide: Ac-RCV[Trp(1-Me)]QDWGAHRCT-NH2
modifications: disulfide 2-12
SMILES: CC(=O)N[C@@H](CCCNC(=N)N)C(=O)N[C@H]1CSSC[C@@H](C(=O)N[C@H](C(N)=O)[C@@H](C)O)NC(=O)[C@H](CCCNC(=N)N)NC(=O)[C@H](Cc2c[nH]cn2)NC(=O)[C@H](C)NC(=O)CNC(=O)[C@H](Cc2c[nH]c3ccccc23)NC(=O)[C@H](CC(=O)O)NC(=O)[C@H](CCC(N)=O)NC(=O)[C@H](Cc2cn(C)c3ccccc23)NC(=O)[C@H](C(C)C)NC1=O
[1]
  IC50 (assay not named in Table 7; preliminary C3b ELISA by paragraph 235): 300000 nM
[2]
  C3b ELISA IC50: 1420 nM
  C5b-9 ELISA IC50: 1070 nM
  Hemolytic assay IC50: 2250 nM
[3]
  RPE cell assay medium C5b-9 ELISA, % of positive control (peptide at 1 µM): 50 % of positive control
  RPE cell-based assay, confocal imaging of deposit-associated C5b-9, % of positive control (peptide at 1 µM): 20 % of positive control
[4]
  C3b ELISA IC50: 1400 nM and 500 nM
  C5b-9 ELISA IC50: 1100 nM and 600 nM

B3: Peptide VI, Ac-RS-ICVme…-NH2 (peptide)
peptide: RSICVXQDWGAHRCT
modifications: N-terminal acetyl; C-terminal amide; disulfide bridge Cys2-Cys12; meW (Trp methylated at the indole amide position) at position 4 (filing's numbering from -1; 6th residue of the chain)
[1]
  IC50 (assay not named in Table 7; preliminary C3b ELISA by paragraph 235): 620000 nM
[2]
  C3b ELISA IC50: 1740 nM
  C5b-9 ELISA IC50: 1130 nM
  Hemolytic assay IC50: 2230 nM
[3]
  RPE cell assay medium C5b-9 ELISA, % of positive control (peptide at 1 µM): 44.6 % of positive control
  RPE cell-based assay, confocal imaging of deposit-associated C5b-9, % of positive control (peptide at 1 µM): 14.8 % of positive control
[4]
  C3b ELISA IC50: 1700 nM and 600 nM
  C5b-9 ELISA IC50: 1100 nM and 600 nM
